Measured values published in the supplement of paper PMC10567573.

B1: TNXB (parent)
chain: LLQRELMVPGTRHSAVLRDLRSGT
B2: SNAP91 (parent)
chain: FAQPMMRPPFGAAAVPGTQLSPSP

Variants of: B1
Assay: protein stability index of a GFP-peptide fusion (GPS, HEK-293T) (PSI 1-6); higher = more stable
Settings: c terminus: a fixed tail appended
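Also: lentivirally expressed fusions sorted by FACS into six bins by GFP to DsRed ratio, PSI derived from sequencing read proportions per bin multiplied by bin number.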

Protein stability index: each site, then its substitutions
Q3: M 2.16; G 2.74; F 2.59; I 1.72; S 2.61; P 2.88; K 2.7; H 2.49; N 2.38; E 3.52; Y 1.72; R 2.49; D 3.4; L 1.73; W 2.15; V 1.58; A 2.27; C 1.93; T 2.17
L6: D 3.37; C 2.59; E 2.7; G 2.8; F 2.74; A 2.43; H 3.18
L2: V 2.48; S 3.4; P 3.71; A 3.36; W 2.12; I 2.79; H 3.43; F 2.15; R 3.92; Y 2.71; Q 3.54; E 3.95; K 3.33; G 3.42; T 3.29; M 2.28; N 3.34; D 3.23; C 2.13
R4: Y 2.37; M 2.37; E 2.65; Q 2.46; D 3.44; V 1.81; F 1.72; S 2.42; K 2.46; W 1.49; C 2.49; A 2.19; N 2.86; P 2.77; I 2.3; T 2.23; L 2.76; G 2.43; H 2.73
L1: S 3.2; Q 3.22; E 3.08; A 2.85; N 3.54; I 2.47; R 3.04; V 2.47; T 3.02; P 2.53; H 2.98; M 2.73; F 2.41; D 2.71; K 2.87; G 2.89; Y 2.3; C 2.38; W 1.61
E5: Y 2.38; I 2.06; T 1.77; W 2.84; F 1.18; G 2.03; C 1.67; H 1.87; R 1.98; D 2.81; V 2.11; M 1.64; P 2.44; Q 2.6; N 2.85; S 2.29; K 2.6; A 1.81

Variants of: B2
Assay: as above
Settings: c terminus: a fixed tail appended

Protein stability index: each site, then its substitutions
P22: R 3.32; D 2.97; S 2.96; L 3.22; H 3.14; G 3.56; A 3.28; Q 3.57; W 2.65; Y 3.49; N 3.58; F 2.82; K 3; I 2.75; T 3.3; E 2.71; C 2.67; V 3.08; M 2.86
S21: L 2.76; P 3.11; T 3.06; Y 3; N 3.03; R 3.12; Q 3.29; V 3.44; W 2.89; M 2.85
P24: K 3.83; I 3.2; G 3.22; Q 3.32; L 2.35; D 3.4; H 2.96; A 3.11; W 2.77; F 2.65; E 3.45; C 2.93; S 3.1; T 3.25; M 3.23; R 2.87; Y 2.86; V 2.51; N 2.58
S23: H 2.96; E 3.32; W 2.03; Q 3; T 3.27; A 3.4; K 3.21; M 2.36; N 3.29; G 3.05; V 3.19; F 2.75; D 3.54; C 3.25; L 2.1; R 4.14; I 2.73; Y 2.52
